Starred links: 1 amine or outer side, 2 acyl side, 3 side chain; linkers in the order of their positions; H or OH if unused. Non-standard residues stand in square brackets, D forms with d. Groups on a side chain read outwards from the residue. No end group written: not given here. *: point of attachment. C20 diacid = O=C(O)CCCCCCCCCCCCCCCCCCC(=O)*; αMePhe(2-F) = C[C@](N)(Cc1ccccc1F)C(=O)O; γGlu = O=C(O)[C@H](CCC(=O)[*:2])N[*:1]; αMeF = C[C@](N)(Cc1ccccc1)C(=O)O; 4Pal = N[C@@H](Cc1ccncc1)C(=O)O; AEEA = NCCOCCOCC(=O)O; Aib = CC(C)(N)C(=O)O
Assays:
[1] = target: T1, human glucose-dependent insulinotropic polypeptide (GIP) receptor (human, UniProt P48546 22-466); assay: SPA, displacement of [125I]-GIP from hGIPR membranes, 0.1% bacitracin
T1 construct: whole, on cells; Assayed as crude membranes of stably transfected CHO cells; also called hGIPR; human GIP receptor
T1 sequence (looked up): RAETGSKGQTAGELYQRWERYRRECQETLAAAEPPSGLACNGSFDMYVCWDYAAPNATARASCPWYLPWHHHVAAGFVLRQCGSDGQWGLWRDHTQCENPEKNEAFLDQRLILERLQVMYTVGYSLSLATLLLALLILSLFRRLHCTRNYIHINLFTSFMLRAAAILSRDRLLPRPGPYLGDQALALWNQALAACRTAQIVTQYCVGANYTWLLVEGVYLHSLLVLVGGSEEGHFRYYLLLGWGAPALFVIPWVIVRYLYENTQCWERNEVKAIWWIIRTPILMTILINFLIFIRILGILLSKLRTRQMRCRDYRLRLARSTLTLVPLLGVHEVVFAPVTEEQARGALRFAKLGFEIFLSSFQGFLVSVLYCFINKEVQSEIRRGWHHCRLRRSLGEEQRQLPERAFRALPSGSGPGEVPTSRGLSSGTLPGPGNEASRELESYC

human glucagon receptor = target: T2, human glucagon receptor (human, UniProt P47871 26-477); assay: SPA, displacement of [125I]-Gcg from hGcgR membranes, 0.1% bacitracin
T2 construct: whole, on cells; Assayed as crude membranes of stably transfected HEK293 cells; also called hGcgR; GcgR
Procedure, shortened: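 Binding buffer: 25 mM HEPES pH 7.4, 2.5 mM CaCl₂, 1 mM MgCl₂, 0.003% Tween-20, protease inhibitors without EDTA. Counted by scintillation after 12 h incubation/settling at room temperature. Four-parameter nonlinear fit; Kᵢ given as geometric mean ± SEM of independent replicates run on different days.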

human GLP-1 receptor = target: T3, human GLP-1 receptor (human, UniProt P43220 24-463); assay: SPA, displacement of [125I]-GLP-1 from hGLP-1R membranes, 0.1% bacitracin
T3 construct: whole, on cells; Assayed as crude membranes of stably transfected HEK293 cells; also called hGLP1R; hGLP-1R
Procedure, shortened: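 Binding buffer: 25 mM HEPES pH 7.4, 2.5 mM CaCl₂, 1 mM MgCl₂, 0.1% bacitracin, 0.003% Tween-20, protease inhibitors without EDTA. Four-parameter nonlinear regression; Kᵢ given as geometric mean ± SEM, n = independent replicates run on different days.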

T2 sequence (P47871 26-477): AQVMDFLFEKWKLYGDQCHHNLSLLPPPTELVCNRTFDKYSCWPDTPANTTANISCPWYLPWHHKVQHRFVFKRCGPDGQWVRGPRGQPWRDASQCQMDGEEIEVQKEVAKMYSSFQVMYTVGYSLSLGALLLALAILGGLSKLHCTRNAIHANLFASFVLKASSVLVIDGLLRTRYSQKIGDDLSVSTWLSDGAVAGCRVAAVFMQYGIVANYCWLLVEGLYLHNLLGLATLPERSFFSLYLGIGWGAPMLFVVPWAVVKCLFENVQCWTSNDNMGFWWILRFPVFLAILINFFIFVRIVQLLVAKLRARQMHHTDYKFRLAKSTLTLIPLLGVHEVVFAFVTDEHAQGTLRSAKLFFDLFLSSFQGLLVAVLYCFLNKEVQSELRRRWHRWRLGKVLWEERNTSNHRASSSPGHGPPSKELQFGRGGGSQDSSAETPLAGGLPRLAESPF

B1: Example 33 (peptide)
peptide: Ac-[dY]AEGT[αMePhe(2-F)]ISDYSIALDKK([AEEA-AEEA-γGlu-C20 diacid])HQ[Aib]EFVNYLLEGGPSSGAPPPS-NH2
SMILES: CC[C@H](C)[C@H](NC(=O)[C@H](CO)NC(=O)[C@H](Cc1ccc(O)cc1)NC(=O)[C@H](CC(=O)O)NC(=O)[C@H](CO)NC(=O)[C@@H](NC(=O)[C@](C)(Cc1ccccc1F)NC(=O)[C@@H](NC(=O)CNC(=O)[C@H](CCC(=O)O)NC(=O)[C@H](C)NC(=O)[C@@H](Cc1ccc(O)cc1)NC(C)=O)[C@@H](C)O)[C@@H](C)CC)C(=O)N[C@@H](C)C(=O)N[C@@H](CC(C)C)C(=O)N[C@@H](CC(=O)O)C(=O)N[C@@H](CCCCN)C(=O)N[C@@H](CCCCNC(=O)COCCOCCNC(=O)COCCOCCNC(=O)CC[C@H](NC(=O)CCCCCCCCCCCCCCCCCCC(=O)O)C(=O)O)C(=O)N[C@@H](Cc1c[nH]cn1)C(=O)N[C@@H](CCC(N)=O)C(=O)NC(C)(C)C(=O)N[C@@H](CCC(=O)O)C(=O)N[C@@H](Cc1ccccc1)C(=O)N[C@H](C(=O)N[C@@H](CC(N)=O)C(=O)N[C@@H](Cc1ccc(O)cc1)C(=O)N[C@@H](CC(C)C)C(=O)N[C@@H](CC(C)C)C(=O)N[C@@H](CCC(=O)O)C(=O)NCC(=O)NCC(=O)N1CCC[C@H]1C(=O)N[C@@H](CO)C(=O)N[C@@H](CO)C(=O)NCC(=O)N[C@@H](C)C(=O)N1CCC[C@H]1C(=O)N1CCC[C@H]1C(=O)N1CCC[C@H]1C(=O)N[C@@H](CO)C(N)=O)C(C)C
B1 was tested, and the Ki [1] was 0.0369 nM, the Ki (human glucagon receptor) was 63.5 nM and the Ki (human GLP-1 receptor) was 31.2 nM.

B2: Example 44 (peptide)
peptide: Y[Aib]EGT[αMeF]ISDYSIALDKK([AEEA-AEEA-γGlu-C20 diacid])HQ[Aib]DFVE[4Pal]LLEGGPSSGAPPPS-NH2
modifications: N-terminus assumed
SMILES: CC[C@H](C)[C@H](NC(=O)[C@H](CO)NC(=O)[C@H](Cc1ccc(O)cc1)NC(=O)[C@H](CC(=O)O)NC(=O)[C@H](CO)NC(=O)[C@@H](NC(=O)[C@](C)(Cc1ccccc1)NC(=O)[C@@H](NC(=O)CNC(=O)[C@H](CCC(=O)O)NC(=O)C(C)(C)NC(=O)[C@@H](N)Cc1ccc(O)cc1)[C@@H](C)O)[C@@H](C)CC)C(=O)N[C@@H](C)C(=O)N[C@@H](CC(C)C)C(=O)N[C@@H](CC(=O)O)C(=O)N[C@@H](CCCCN)C(=O)N[C@@H](CCCCNC(=O)COCCOCCNC(=O)COCCOCCNC(=O)CC[C@H](NC(=O)CCCCCCCCCCCCCCCCCCC(=O)O)C(=O)O)C(=O)N[C@@H](Cc1c[nH]cn1)C(=O)N[C@@H](CCC(N)=O)C(=O)NC(C)(C)C(=O)N[C@@H](CC(=O)O)C(=O)N[C@@H](Cc1ccccc1)C(=O)N[C@H](C(=O)N[C@@H](CCC(=O)O)C(=O)N[C@@H](Cc1ccncc1)C(=O)N[C@@H](CC(C)C)C(=O)N[C@@H](CC(C)C)C(=O)N[C@@H](CCC(=O)O)C(=O)NCC(=O)NCC(=O)N1CCC[C@H]1C(=O)N[C@@H](CO)C(=O)N[C@@H](CO)C(=O)NCC(=O)N[C@@H](C)C(=O)N1CCC[C@H]1C(=O)N1CCC[C@H]1C(=O)N1CCC[C@H]1C(=O)N[C@@H](CO)C(N)=O)C(C)C
B2 gave a Ki [1] of 0.059 nM, a Ki (human glucagon receptor) of 50 nM and a Ki (human GLP-1 receptor) of 209 nM.

Source: patent US20210032299A1 (Eli Lilly, published 2021)
